Holding throughout (assay): BLI
On the technique in general: Biolayer interferometry detects binding as a change in optical thickness at a sensor tip.

The target of experiment [1] is M15 single reverted mutant T57I (light chain residue 57 reverted to the germline residue) (human).
Experiment [2] deals with M15 triple mutant with all three light chain mutations (S32I, G51A, T57I) reverted to germline (human).
The target in experiment [3] is M15 single reverted mutant G51A (light chain residue 51 reverted to the germline residue) (human).
Experiment [4] concerns the target M15 single reverted mutant S32I (light chain residue 32 reverted to the germline residue) (human).

As for “SARS-CoV-2 WA1/2020 S2 protein (stabilized prefusion SARS-CoV-2 spike S2 trimer) (from UniProt P0DTC2) (domain or fragment)”, the fold decrease in binding affinity compared to M15 in experiment [1] was 1.02 fold; in experiment [2], 12 fold; in experiment [3], 1.88 fold; in experiment [4] it was 1.45 fold.
